The numbers were not newly measured in paper PMC6331645, which cites them from elsewhere.

What is called Kd is a measure of binding affinity in units of concentration.

This data set has as its target Raf1 RBD RBD (Homo sapiens) (UniProt P04049).

As to KRas (from UniProt P01116), the Kd was 20 nM.
